# Data reported in publication PMC9927937, “Loss of LGR4/GPR48 causes severe neonatal salt wasting due to disrupted WNT signaling altering adrenal zonation” (The Journal of Clinical Investigation, 2023).
# B1: GFP-tagged RSPO1 (ligand, UniProt Q2MKA7 21-263, looked up)
# chain: SRGIKGKRQRRISAEGSQACAKGCELCSEVNGCLKCSPKLFILLERNDIRQVGVCLPSCPPGYFDARNPDMNKCIKCKIEHCEACFSHNFCTKCKEGLYLHKGRCYPACPEGSSAANGTMECSSPAQCEMSEWSPWGPCSKKQQLCGFRRGSEERTRRVLHAPVGDHAACSDTKETRRCTVRRVPCPEGQKRRKGGQGRRENANRNLARKESKEAGAGSRRRKGQQQQQQQGTVGPLTSAGPA
# Columns and labels:
# [1] = target: HA-tagged LGR4, wild type (human, UniProt Q9BXB1-1 25-951); experiment: cell-based or functional assay
# [2] = target: HA-tagged LGR4 nt-24 variant (-8 AA) (human, UniProt Q9BXB1-1 25-951, p.(His207_Arg214)); experiment: cell-based or functional assay
binder,measurement,setting,value
B1,"TOP-Flash luciferase reporter of Wnt/β-catenin signaling in HEK293T cells transfected with LGR4, stimulated by RSPO1 (fold over basal)",[1],6.1 fold
same,"TOP-Flash luciferase reporter of Wnt/β-catenin signaling in HEK293T cells transfected with LGR4, stimulated by RSPO1 (fold over basal)",[2],3.3 fold
